# Assay results: a protein production outcome set (Wang et al. 2014)
# Assay: label from the status in PepcDB records
# 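Note: failed if final PepcDB status was selected cloned or expressed and not failed if soluble or beyond.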
row,Sequence,protein production
1,MKRTLYSGVGLLLVGLLFLAFNLLSSLLLRDQQFDLTQQKLYTFSAGTQEVLDSLDEPLNLYLFFSKSRASDLPALRNYARRVEEVLDLYARRSHGNVRLFVIDPLPFSDDEDRAARFGLQAPPIGPNGEAIYFGLAATNPTDGLQVIPFFSPEEEPLLEYDLSRLVQALAQRERTVVGLMSSLPMTGQAPTDGQPGSRPWAMMDKLYQQFDIRTLGLASTEIPAEVSVLMLVHPRQLSEQTQYAIDQFVLRGGKLLAFVDPLSLADADGGKSSDLAPLLRSWGVQLRPDTLLADASFAMIKPNAERRPERNPTWLHLPGDTFPHDNVLTTGLESLNLASVGLLEPLGGASTRFIPLLHSSAHSMPLSLERFRQSSTEQLNATLVPTGERYVLAAKVEGPATSAFPADRGKQGEGLSDSANIHVLLVADTDLLSNPLWLQEQPGHNEPQVWADNDLFVGNALDYLSGSDALIDLRSRGHTKRPFTRVEALRREAGLRAQEQLNALQQSLNDTDRNLRTLQQSMDAGDQEVTPEMEATLRRFIDDKLRIRQQLRQLQFQLNADVERLGEQVKLANTVLLPALLTLFLLLHWSWRSMRRRRG,failed
2,MKRVLVLGATGRTGNFVIKELSKYKSIQLIAGLRSQKDKERLPKINAAIETVVIDIADVCSLRKALTDSDIVVQAIRLRGDISENALIQLDQRIHQAFNPSRKTHLVTVGGAGALKLEANQRFWENEYFPRQTLPRGIAHARLRDYLEKSFFNHTWTYLIPPPVYVAEGARTGSYNRYSSAQKEDFFLSKSISYADFALAIGNAVMEEWQGVYLIAEKELEHHHHHH,failed
3,MKSCSRSSSVRLCVRCTGLSLWCCIGHATSVIKSVRNMQSVIGNGYKRSPTGKESRMTPLTSDFLSSSVVFLSAAVIAVPLAQRAGLGSVLGYLLAGIAIGPWGLGLIRDVQAIMHFAEFGVVLLLFLIGLELNPKKLWNLRGPILGLGGAQVVVTTAVLSSVAYLLGVSWQSALVIGMALALSSTAIALRVIEEHGLTRTEAGQSGFAVLLFQDIAVIPMLALLPILAGNSSGDWLNALWMTGGIAALLLGGHFLLNPLFRYIALSGVRELFTVAALLLVVGIALLMQKVGLSMALGTFLAGVILAESEFRHELEIAIDPFKGLLLGLFFISVGMAVDVGLLLVKPLQIMLAVLGLVIVKGLVLYLLARLSGTVAKARSKMAAILSQGGEFAFVIFTAASAEGLLTASQVSFLLVVVSLSMVTTPLLLSAQKYWFARQLNIEENPLTPDVENKEPRVIIVGFGRFGQIVGRLLYANKIKVTILESDASQVRLLRKYGYKVFYGDATNLELLRAAGVEQAEALVVCTDDPEQVITIVELCQQHFPNLKLLARARSRVEAYQLMSLGVQNYTRETFLSALDLGRKALVQLGMHPYQAKRAEEHFHRLDKTMLKELLPQHNEDKQLELRAKEARTELEEIFSREMDSDQLSRRYWEKE,failed
4,MKSEKETIYDYAAELKLLSFKEELECTLSLAAEENWNHLQFLTELLGKESARRRECRRRSRIRSAGFPQMKYLHELVMEDMPKEAQVILPELETLDFIRQGRNLVLYGNPGTGKTHIATALGIKACQQDFTVLFTSVPVLLTQIREAKSAKTLRTLQLRFEKYDLVICDEFGYVSCDKEGGELLFNHLSLRAGKKATIITTNLAFNRWNEIIKDKVLVAAMVDRLTHKAYLVNMTGLSYRLKETQKMRQDKLEHHHHHH,failed
5,MKSILSLFSGIGGLCHHGIAAAGLSHKFQVKQFVEISPYSQSRLRHEQPQTPIHSDITTYHCHRGQFDIVAGGLPCQGTSNAGNRQGLDDPRSALWAEQFRIIESDRPAIALIENPTGLLYRGLEQIICDLDSIGYMGEWNCISAQQVGLPHQRKRIFIIAYSNGLFNQVVPAPWSNQIGNHITQVRLSLETRSYQPGISKVASRIPIGVAKNIPGNYDARRAYGLSCSPRQAAVAWKRIDYLCSLLSYQEAS,failed
6,MKSITQLENKKVLVLGLAKSGEAAARLLAKLGAIVTVNDGKAFEENPSAQSLLEEGIKVVCGGHPLELLDENFELMVKNPGIRYDNPMVARALEKEIPVWTEVELAYLVSEAPIIGITGSNGKTTTTTMIADVLNHGGKSGVLSGNIGFPASEVAQSVTNQDTLVMELSSFQLMGIESFHPHIAVITNLMPTHIDYHGSFEEYVAAKWNIQNEMTSDDFIILNFNQDLAKELATQTNAQVVPFSTVEKVDGAYLENGGLYFKGELLMHADELGVPGSHNVENALATIAVAKLSGVSNQAIKETLSSFGGVKHRLQFVDTIDDVKFYNDSKSTNILATQKALSGFDNSKVILIAGGLDRGNEFDELIPDITGLKKMVILGESAPRVKRAADKAGVTYLDAKDVADATRIAFEQASAGDVVLLSPANASWDMYKNFEVRGDEFITTVERLKG,failed
7,MKSKDSPIINEQFWDALFFNGTMPWDRSQTPNELKHYLKRIADKTHSVFIPGCGAAYEVSHFVDCGHDVIAMDYSAEAVNLAKSQLGQHQDKVMLGDVFNADFSREFDVIYERAFLAALPREIWGDYFAMIERLLPSNGLLVGYFVISDDYRSRFPPFCLRSGEIEQKLEANFHLIESTPVTDSVDVFKGKEQWMVWQKK,failed
8,MKSKRGFTLLEVLVALAIFATAAISVIRSVSQHINTVNYLEEKMFAAMVVDNQMAQVMLNPQSLAAREGSEQMAGRTWYWKLSPVKTADNLLKAFDVSVATEKGATPVVTVRSYVAN,failed
9,MKSLKGIIYAMISSGTFGLIPLFTIPLMGNMEMNESNILFYRFLFSTLMMGAVCLLHKSTLKINMKHLISIIGLGALYALTALFLIYSYHYITSGVATTIHFLYPICVSFLMVVFFKEQKSKSLFLAASLSLIGVALMCWSGGGSIRLMGIGLAALTILTYGIYIVALNQLDIGKLPAEVLTFYVLLGGCVIFFIYSLFTAGISSIPSTKAGFYILALAFLSTVISDLTLILAVKYAGSTTTAILGSMEPLVAVVVGVLVFSEHFTLQSLIGLLLILMSVIIVILADQQKKSKRITEQKIIKPH,failed
10,MKSLYQMNHIGHPFMYPKMDITKMNKTNNQNIPNKAHNPNNSSNMNTTKKSYGTSLNYIKKENSSKNSIYNNYEYLDASHLEMLDLNKNIKNILPKPMKPSLDLESLCKETTSTMKKSKMHCMKSGENQNKNVKHFYEMGTPQIIGTYIQPLHHNTNSFNQNNFPKNHMFPLLPSSPFFQPPNFRTNLTQASSTFIPLPHANKSTNIYGMPSYLIPENKPQNLTVTVVPNKDKDSIEKEAKHLKALLDSSSKGIVNSTPDYQKIQPSTLSNYNDKESDFSFGKNDNYEHAEYSEQNCNDENDTENNYNSFVNEFYDPHNSISYNNVNEFLKNSNQKNQQHAFRLESNEEVARKVHKEFTYPKGTSLNKINILNQNYKEEGEQQQENETKNNMNMQERDEERQTMKKDSSIPKRTQLSKKKEHNNNNIVLKKHEPSTCFKNPKTYINIRLGKPKKLYITNSSDPIDKKLSEWHNTHNSQIGWKKYRRGVYTFGKTEVILSLVHDKIIVKKINGKHIKDNLLTVEKFVSLNELYEIQQEENDNMLKKRGVKFFNF,failed
11,MKSRPRLLLVYPATHKLGWVRRFQLPSLSLKQVAAVTPPEWEVVMADEVHEDVPFGEKFDLVGITAMTHQAVRAYEIADRFRAQGVPVVLGGIHPTVLPEEAQAHADAVLIGEAEPVWAKLLDDFLAGRLAPLYRAPIPTDDRLVIPWSRRDILAGRQYLTTQTVQASRGCPYDCPFCTVTPYFGRTFRYRNPDDVLAELRSFEGKLMVFVDDNILGDPVRAKPILEGMAGMNLRWGGQANLRFAEDPELVKLVARSGCIGIFVGIESVTGPHANHAKTGNGSSQIDLVKRVRDAGIVLEASMIFGFDDHDEGIFERTVRFLEECAPSIPTFNVLTPYPGTSLFKQFDREGRLLHKDWSRYDHGQVVFRPKQMTPERLYRGWQEARWEAYRLPAIASRVMKGKGKLVNLAYNFLRRGGIERPDRIVHIREVAEP,failed
12,MKSSKAEKELTHQYVLNDSLHQLFDAVNIVSVQGYDEQRRVIYWNVGSELLYGYTQKEALGQKLEDLIIPKPMREIVIGAHSDWIKKGIEIPASEITLCHKNGNDVNVFSSHALFTNQYNKKQMYCIDVNLA,failed
13,MKSVSTWALSFFSDELSRRAVSDCYLWTTAISLLLILLLHIFFSTKFRFFTSAPSSSSSSSSSSSPSTESVPANSQSRISKLVSDEDLKFLIENLEEETNDSTEIWEHVIHKSNDRISYSAKRCKPKDGGGPMKYLSVTVFEGFSAEIVRDFYMDNDYRKLWDKTVVEHEQLQVDSNTGIEIGRTIKKFPLLTSREYVLAWRLWQGKEKKFYCFTKECDHNMVPQQRKYVRVSYFRSGWRIRQGNILSTFDTYLTDTFDTLAAVPGRNACEIKMFHQENAGLNVEMAKLAFSKGIWSYVCKMENALCKYIATSHRTQGPILSAVTLMKEVPSELETGTDNVTGSMETSSGEGVLSHVVAAKQKKKMRKPSTKLIAKGLVLVGGAICLSRGPSALGAKVALAYLLTKLNKRGTSLNQTTQTTTI,failed
14,MKSWIVKEIKINGLSYFGPLIFTVLPIAERIYKISLNSYIMINYLILVIFLSFICTYLVLSNLFNGIMYTLTYTVGISPKEIILTRLFLFSTIPVLPIAMALWMTSSLTTLAKFIIQIYILVLMSTIIGIIFKNDIIALIMDFIISALGLSVKINFLFPFLSGQLNPLSGIIVVLLLALTIYLLSNVELQKVERV,failed
15,MKSYMTQRLDEYRDGNEDKGRLLVSCPDQPGIVSAVSAFLFEHGANIIESNQYTTDPEGGRFFLRIEFDCAGIREKKSSLQAAFASVAEKFDMTWSLTLASELKRVAIFVSKNLHCLHELIWEWQTGNLMAEIAVVISNHEEARELVERLNIPFHYMKANKDIRAEVEKKQLELLEQYDVDVIVLARYMQILTPDFVSAHPNRIINIHHSFLPAFIGANPYKRAYERGVKLIGATSHYVTNDLDEGPIIEQDIKRVDHRDNAETLKNIGRTIERSVLARAVKWHLEDRVIVHENK,not failed
16,MKSYVLGEFGAEAALLDAARTLRARGGATLDLHSPYPLHGAEEALGLRKSTVPLVALVAGITGAVSGYLLQWYTVGYAWPLNVGNRPPHSAPAFIPVTFELGVLFSALAIFVGLLAVYFGFPRVHHPVFEVEAFRSASIDGLWLSAEVEAGDADAVAAELRRLGARLVSVVPEGK,failed
17,MKTAIVTDSASYLSAADVEKYHIHVVPITVIFGHQTYLENVEITSKEFYERMRTAPELPTTTQITLGQMQTTYDQLAKAGYDAVISIHLSSGITSFITNLESYLPNVTNIKVYPFDSLITAGGEAYMVLLAAKLVTEGYSPEQVIAQLKKIRETTGVYFVVDNLSHLVRTGRLSNASGLVGNLLRIKPVLTFQDGKIVAIQKERTMRRAYAAIKAKLAAEIAAVDYPLRVTIENGNNPKLQAEWTADLKASFPDLTIDEGEIGPVVGVHVGEGVMGLIWARDWEKWTI,failed
18,MKTAQHETISNREFYFVLYMMLLYVTGWVIDVNGLFLSSYFNLAGEIMLPLVGGIVGLFIMSVNKQQTK,failed
19,MKTARPGKLKRQEEQASFISWRFALLCGCILLALVGLIMRTAYLQVINPDKLVREGDMRSLRVQEVPTARGMISDRSGRPLAVSVPVNAVWADPKELIEQGGISLDTRWKALSDALEIPLDQLATRINANPKGRFVYLARQVNPAIGDYIRKLKLPGIHLRQESRRYYPAGQVMAHIIGVTNIDGQGIEGVEKSFDRWLTGQPGERTVRKDHYGRVIEDISSVDSQAAHNLVLSVDERLQALVYRELNNAVAFNKAESGTAVLVDVNTGEVLAMANSPSYNPNNLTGTPKDAMRNRAITDIFEPGSTVKPMVVMTALQHGVVKENSVLNTLPYFVNGHQIKDVARYAELSVTGILQKSSNVGVSKLALAMPSSALVDTYSRFGFGKATNLGLVGESSGLYPKKQRWSDIERATFSFGYGLMVTPLQLARVYATIGSMGVYRPLSITRVDPPVAGERIFPEPLVRTVVHMMESVALPGGGGTKAAIKGYRIAIKTGTAKKVGPDGKYMDRYLAYTAGVAPASNPRFALVVVINDPQAGKYYGGAVSAPVFGAIMGGVLRTMNIEPDALPTGDKSELVINTKEGSGGRS,not failed
